Measured values published in publication PMC12174348 (Nature Communications, 2025).

Biological target: human NMDAR (GluN1 and GluN2B subunits) on HEK293 cells (Homo sapiens, UniProt Q05586;Q13224)
Assay: cell-based or functional assay

B1: reference pathogenic anti-NMDAR autoantibody 502 Ab (antibody, V domains shown)
VH: QVQLQESGPGLVKPSQTLSLTCSVTGYSITSDYYWHWIRQPPGKGLEWIAYIRYDGRNDSNPSLKNRVTISRDTSKNQFSLKLSSVTAADTAVYYCAREDYASSSFDYWGQGTLVTVSS
VL: DIQMTQSPSSLSASVGDRVTITCRPSENIYSNLAWYQQKPGKAPKLLVYAATNLADGVPSRFSGSGSGTDYTLTISSLQPEDIATYYCQHFWDSPPTFGQGTKLEIK
B1 was tested, and the “in vitro pathogenicity (NMDAR internalization) of 502 Ab, EC50; the sentence may also mean its binding” value was 0.021 µg/mL.
